Assay [1] concerns the target HLA-A*03:01. The assay can be described thus: IEDB peptide-MHC binding, purified MHC/competitive/fluorescence; filed as Kd, often an IC50 or EC50 that approximates it; ≥ and ≤ were set here for values at or beyond the usual limits of such assays.
For another assay, the target named is HLA-B*45:01. The assay can be described thus: IEDB peptide-MHC binding, purified MHC/competitive/radioactivity; filed as Kd, often an IC50 or EC50 that approximates it; ≥ and ≤ were set here for values at or beyond the usual limits of such assays.
The target in a further assay is HLA-B*44:03. The assay is described as above.
In the next assay the target is HLA-B*40:02. The assay is described as above.
For assay [2], the target named is HLA-B*44:02. The description is as above.
For assay [3], the target named is HLA-B*40:01. Described as above.
A further assay has as its target HLA-B*18:01. Described as above.
A further assay concerns the target HLA-B*27:05. Put plainly: IEDB peptide-MHC binding, purified MHC/direct/fluorescence; filed as Kd, often an IC50 or EC50 that approximates it; ≥ and ≤ were set here for values at or beyond the usual limits of such assays.
For a further assay, the target named is HLA-A*01:01. Described as above.
A further assay addresses HLA-B*07:02. Described as above.
The next assay deals with HLA-B*15:01. Described as above.
The target of a further assay is HLA-A*69:01. Described as above.
In the next assay the target is HLA-A*26:01. The description is as above.
In assay [4] the target is HLA-B*44:02. Described as above.
Assay [5] has as its target HLA-A*03:01. Described as above.
A further assay has as its target HLA-B*08:01. The description is as above.
A further assay concerns the target HLA-A*11:01. Described as above.
The target of another assay is HLA-B*58:01. The assay is described as above.
The target in assay [6] is HLA-A*02:01. The assay is described as above.
The target of assay [7] is HLA-B*40:01. Described as above.
Another assay deals with HLA-A*31:01. Described as above.
The target in another assay is HLA-A*24:02. Put plainly: IEDB peptide-MHC binding, purified MHC/competitive/fluorescence; ≥ and ≤ were set here for values at or beyond the usual limits of such assays. The note with it: source organism: Sudan ebolavirus.
For assay [8], the target named is HLA-A*02:01. Described as above. As to conditions: source organism: Sudan ebolavirus.
Setting [9] is: source organism: Lymphocytic choriomeningitis virus (strain WE).
The mark [10] stands for this setting: source organism: SARS coronavirus Tor2.
Where [11] appears, read: source organism: Giardia lamblia ATCC 50803.
Setting [12] is: source organism: Coxiella burnetii.

Experimental findings from the Immune Epitope Database (IEDB) are described below.

A word on the Kd: it is the constant that tells how readily two partners part at equilibrium. In general, IC50 refers to the concentration at which inhibition is half-maximal. Higher therefore signals a need for much substance.

Take RLSVKTFVH: the Kd with HLA-A*03:01 [1] (source organism: Coxiella burnetii RSA 493) worked out at 0.0276 µM.
On to KEPVESCPLM, for which the dissociation constant (Kd) was at least 70 µM with HLA-B*45:01 (setting [9]); at least 40.8 µM with HLA-B*44:03 (setting [9]); 0.208 µM with HLA-B*40:02 (setting [9]); 14.3 µM with HLA-B*44:02 [2] (setting [9]); 11.8 µM in the assay with HLA-B*40:01 [3] (setting [9]); at least 34.4 µM with HLA-B*18:01 (setting [9]).
In the assay with HLA-A*03:01 [1] (source organism: Yersinia pestis Antiqua), QLAFFVAGH displayed a Kd of 0.199 µM.
As to EEAARCMRSL, the equilibrium dissociation constant (Kd) with HLA-B*45:01 (setting [10]) came to 0.085 µM; with HLA-B*44:03 (setting [10]), 0.406 µM; with HLA-B*40:02 (setting [10]) it was 0.184 µM; with HLA-B*44:02 [2] (setting [10]), 0.164 µM; with HLA-B*40:01 [3] (setting [10]), 0.802 µM; with HLA-B*18:01 (setting [10]), 6.89 µM.
For the sequence KLADMSIYC, the equilibrium dissociation constant (Kd) was at least 20 µM with HLA-B*27:05 (setting [11]); at least 20 µM in the assay with HLA-A*01:01 (setting [11]); at least 20 µM with HLA-B*07:02 (setting [11]); 4 µM with HLA-B*15:01 (setting [11]); at least 20 µM with HLA-A*69:01 (setting [11]); at least 20 µM with HLA-A*26:01 (setting [11]). For the same sequence, the Kd with HLA-B*44:02 [4] (setting [11]) was at least 20 µM; in the assay with HLA-A*03:01 [5] (setting [11]) it was 4.2 µM; with HLA-B*08:01 (setting [11]), at least 20 µM; with HLA-A*11:01 (setting [11]), at least 20 µM; in the assay with HLA-B*58:01 (setting [11]), at least 20 µM; with HLA-A*02:01 [6] (setting [11]) it was 0.0427 µM. The dissociation constant (Kd) with HLA-B*40:01 [7] (setting [11]) and with HLA-A*31:01 (setting [11]) was at least 20 µM in each case.
Take PTLTTPENI: the results for the IC50 with HLA-A*24:02 and in the assay with HLA-A*02:01 [8] were 53.7 µM and at least 269 µM, respectively.
The matching figures for TTGRLIWTL: 0.309 µM and 2 µM.
For PEIRRWIIF, the equilibrium dissociation constant (Kd) with HLA-B*27:05 (setting [12]), with HLA-A*01:01 (setting [12]), in the assay with HLA-B*07:02 (setting [12]), in the assay with HLA-B*15:01 (setting [12]), in the assay with HLA-A*69:01 (setting [12]) and in the assay with HLA-A*26:01 (setting [12]) was at least 20 µM throughout. The Kd with HLA-B*44:02 [4] (setting [12]), with HLA-A*03:01 [5] (setting [12]), in the assay with HLA-B*08:01 (setting [12]), in the assay with HLA-A*11:01 (setting [12]), with HLA-B*58:01 (setting [12]) and with HLA-A*02:01 [6] (setting [12]) was at least 20 µM each time. The results for the Kd with HLA-B*40:01 [7] (setting [12]) and in the assay with HLA-A*31:01 (setting [12]) were 5.64 µM and at least 20 µM, respectively.
In the assay with HLA-A*03:01 [1] (source organism: Influenza A virus (A/Fort Monmouth/1/1947-mouse adapted(H1N1))), ETMEVVQQTR displayed a Kd of at least 20 µM.
On to EGIYTEGLM, for which the IC50 with HLA-A*24:02 was found to be 15 µM; in the assay with HLA-A*02:01 [8], 33.4 µM.
For the sequence YHFDPVHHL, the Kd with HLA-B*27:05 (setting [12]), with HLA-A*01:01 (setting [12]), in the assay with HLA-B*07:02 (setting [12]), with HLA-B*15:01 (setting [12]), with HLA-A*69:01 (setting [12]) and with HLA-A*26:01 (setting [12]) was at least 20 µM in each case. Besides, the equilibrium dissociation constant (Kd) with HLA-B*44:02 [4] (setting [12]), with HLA-A*03:01 [5] (setting [12]), with HLA-B*08:01 (setting [12]), with HLA-A*11:01 (setting [12]), with HLA-B*58:01 (setting [12]) and in the assay with HLA-A*02:01 [6] (setting [12]) was at least 20 µM throughout. Also, the Kd with HLA-B*40:01 [7] (setting [12]) and in the assay with HLA-A*31:01 (setting [12]) was at least 20 µM throughout.
EEILGTVSW: the dissociation constant Kd with HLA-B*45:01 (setting [10]) turned out to be 1.55 µM; in the assay with HLA-B*44:03 (setting [10]) it was 0.00258 µM; with HLA-B*40:02 (setting [10]), 0.378 µM; in the assay with HLA-B*44:02 [2] (setting [10]), 0.00319 µM; in the assay with HLA-B*40:01 [3] (setting [10]) it was 3.08 µM; with HLA-B*18:01 (setting [10]) it was 0.0783 µM.
